Key:
[1] = tested on: SBS 26334 ZFN (engineered); test: cell_activity; conditions: Cel-I indels, pair 26323/26334, K562, no donor
[2] = tested on: SBS 26323 ZFN (engineered); test: cell_activity; conditions: Cel-I indels, pair 26323/26334, K562, no donor

| Sequence | activity [1] [%] | activity [2] [%] |
| --- | --- | --- |
| AACAGGTAAGCTCCATTGTGCTTATATC (double strand) [SNCA site 36 (25358/26334)] | < 45 | – |
| CACACCATGCACCACTCCCTCCTTGGTT (double strand) [SNCA site 37 (26323/26327/26331)] | – | < 45 |

— patent US20120192301
